Experimental data published in US10253076B2, “Peptides and combination of peptides for use in immunotherapy against ovarian cancer and other cancers” (immatics biotechnologies GmbH, priority 2015, dated 2019).

The substances below were run against HLA-A*02:01 (Homo sapiens, UniProt P04439, D140Y/D185E/D98H/E176V/E277Q/G131W/G231S/I119V/I121R/I166T/I218V/L300P/L318F/N151K/N90K/P208A/P217A/Q86G/Q94H/R138H/R169H/T345S) (assay: MHC binding assay (UV-ligand exchange, beta2m ELISA, peptide exchange yield)). Settings: binding of HLA-class I restricted peptides to HLA-A*02:01, ranged by peptide exchange yield (UV-ligand exchange, β2m ELISA).
How it was run: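 Peptide–HLA-A*02:01 complexes made by UV-mediated exchange of a photocleavable peptide with the test peptide. Exchange products diluted 100-fold on streptavidin-coated plates, 1 h at 37°C, then HRP anti-β2m 1 h at 37°C; TMB read at 450 nm to give exchange yield.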

Peptide exchange | Substance
″+++″ (≥50% = +++) | 501 (LLDPNVKSIFV; listed as Homo sapiens) [compound 501]
″+++″ (≥50% = +++) | 502 (RLLAQVPGL; listed as Homo sapiens) [compound 502]
″+++″ (≥50% = +++) | 503 (SLNHFTHSV; listed as Homo sapiens) [compound 503]
″++″ (≥20% = ++) | 504 (GLSDGNPSL; listed as Homo sapiens) [compound 504]
″++″ (≥20% = ++) | 505 (SLAPGDVVRQV; listed as Homo sapiens) [compound 505]
″+++″ (≥50% = +++) | 506 (KLLGKVETA; listed as Homo sapiens) [compound 506]
″+++″ (≥50% = +++) | 507 (KLIDDQDISISL; listed as Homo sapiens) [compound 507]
″+++″ (≥50% = +++) | 508 (ILAQEQLVVGV; listed as Homo sapiens) [compound 508]
″+++″ (≥50% = +++) | 509 (FLFDTKPLIV; listed as Homo sapiens) [compound 509]
″++″ (≥20% = ++) | 510 (KLYSVVSQL; listed as Homo sapiens) [compound 510]
″+++″ (≥50% = +++) | 512 (SLSEIVPCL; listed as Homo sapiens) [compound 512]
″++″ (≥20% = ++) | 513 (SLWPSPEQL; listed as Homo sapiens) [compound 513]
″+++″ (≥50% = +++) | 514 (ILVDWLVQV; listed as Homo sapiens) [compound 514]
″+++″ (≥50% = +++) | 515 (LLQELVLFL; listed as Homo sapiens) [compound 515]
″++″ (≥20% = ++) | 516 (AVGPASILKEV; listed as Homo sapiens) [compound 516]
″+++″ (≥50% = +++) | 517 (LLMPIPEGLTL; listed as Homo sapiens) [compound 517]
″+++″ (≥50% = +++) | 518 (KLNAEVACV; listed as Homo sapiens) [compound 518]
″+++″ (≥50% = +++) | 519 (GLLHLTLLL; listed as Homo sapiens) [compound 519]
″+″ (≥10% = +) | 520 (LAVHPSGVAL; listed as Homo sapiens) [compound 520]
″+++″ (≥50% = +++) | 521 (MLLTKLPTI; listed as Homo sapiens) [compound 521]

Peptide exchange | Substance
″++″ (≥20% = ++) | 522 (TLWYRSPEV; listed as Homo sapiens) [compound 522]
″++″ (≥20% = ++) | 523 (YQIPRTFTL; listed as Homo sapiens) [compound 523]
″++″ (≥20% = ++) | 524 (ALIENLTHQI; listed as Homo sapiens) [compound 524]
″+++″ (≥50% = +++) | 525 (VLLEAGEGLVTI; listed as Homo sapiens) [compound 525]
″++″ (≥20% = ++) | 526 (RLAEVGQYEQV; listed as Homo sapiens) [compound 526]
″++++″ (≥75% = ++++) | 527 (FLLEPGNLEV; listed as Homo sapiens) [compound 527]
″+++″ (≥50% = +++) | 528 (SVAEGRALMSV; listed as Homo sapiens) [compound 528]
″+++″ (≥50% = +++) | 529 (LLADELITV; listed as Homo sapiens) [compound 529]
″+++″ (≥50% = +++) | 530 (VMYADIGGMDI; listed as Homo sapiens) [compound 530]
″+++″ (≥50% = +++) | 531 (YTLPIASSIRL; listed as Homo sapiens) [compound 531]
″+++″ (≥50% = +++) | 537 (TLAPGEVLRSV; listed as Homo sapiens) [compound 537]
″++″ (≥20% = ++) | 538 (LLLAHIIAL; listed as Homo sapiens) [compound 538]
″+++″ (≥50% = +++) | 539 (ALFDAQAQV; listed as Homo sapiens) [compound 539]
″+++″ (≥50% = +++) | 541 (SMLEPVPEL; listed as Homo sapiens) [compound 541]
″+++″ (≥50% = +++) | 542 (RVWDISTVSSV; listed as Homo sapiens) [compound 542]
″+++″ (≥50% = +++) | 543 (GLLPTPITQQASL; listed as Homo sapiens) [compound 543]
″+++″ (≥50% = +++) | 544 (LLWDVPAPSL; listed as Homo sapiens) [compound 544]
″+++″ (≥50% = +++) | 545 (LLADLLHNV; listed as Homo sapiens) [compound 545]
″+++″ (≥50% = +++) | 546 (VMIAGKVAVV; listed as Homo sapiens) [compound 546]
″+++″ (≥50% = +++) | 547 (TLDITPHTV; listed as Homo sapiens) [compound 547]

Peptide exchange | Substance
″++″ (≥20% = ++) | 548 (ALWENPESGEL; listed as Homo sapiens) [compound 548]
″+++″ (≥50% = +++) | 549 (AMLENASDIKL; listed as Homo sapiens) [compound 549]
″+++″ (≥50% = +++) | 550 (FLYDEIEAEVNL; listed as Homo sapiens) [compound 550]
″+++″ (≥50% = +++) | 551 (KLYESLLPFA; listed as Homo sapiens) [compound 551]
″++++″ (≥75% = ++++) | 552 (GLLDLPFRVGV; listed as Homo sapiens) [compound 552]
″++++″ (≥75% = ++++) | 553 (SLLNQDLHWSL; listed as Homo sapiens) [compound 553]
″+++″ (≥50% = +++) | 554 (LLMPSSEDLLL; listed as Homo sapiens) [compound 554]
″+++″ (≥50% = +++) | 555 (YVLEGLKSV; listed as Homo sapiens) [compound 555]
″+++″ (≥50% = +++) | 556 (FLTDLEDLTL; listed as Homo sapiens) [compound 556]
″+++″ (≥50% = +++) | 557 (KLYDDMIRL; listed as Homo sapiens) [compound 557]
″+++″ (≥50% = +++) | 558 (GLLENIPRV; listed as Homo sapiens) [compound 558]
″++″ (≥20% = ++) | 559 (VTVPPGPSL; listed as Homo sapiens) [compound 559]
″+++″ (≥50% = +++) | 560 (ALWDIETGQQTTT; listed as Homo sapiens) [compound 560]
″+++″ (≥50% = +++) | 561 (YLQLTQSEL; listed as Homo sapiens) [compound 561]
″+++″ (≥50% = +++) | 562 (YLEELPEKLKL; listed as Homo sapiens) [compound 562]
″+++″ (≥50% = +++) | 563 (WLLPYNGVTV; listed as Homo sapiens) [compound 563]
″+++″ (≥50% = +++) | 564 (TVTNAVVTV; listed as Homo sapiens) [compound 564]
″++″ (≥20% = ++) | 565 (ALQETPTSV; listed as Homo sapiens) [compound 565]
